The record followed here is article doi:10.1101/2020.06.11.146753, “Insights into glycan import by a prominent gut symbiont” (bioRxiv, 2020).

One series addresses T1, Bt1763 (SusC) (Bacteroides thetaiotaomicron VPI-5482, UniProt Q8A6W3 26-1041).
T1 construct: Bt1763, SusC TonB-dependent transporter of the levan PUL, Bacteroides thetaiotaomicron VPI-5482; Untagged; isolated through the His6 tag on Bt1762; NTE invisible in the X-ray structures; plug domain absent from closed, empty transporters; also called SusC TonB-dependent transporter; source: B. thetaiotaomicron (Bt1762-his strain) grown on MM-fructose, outer membrane fraction in LDAO; purified …
T1 sequence (looked up): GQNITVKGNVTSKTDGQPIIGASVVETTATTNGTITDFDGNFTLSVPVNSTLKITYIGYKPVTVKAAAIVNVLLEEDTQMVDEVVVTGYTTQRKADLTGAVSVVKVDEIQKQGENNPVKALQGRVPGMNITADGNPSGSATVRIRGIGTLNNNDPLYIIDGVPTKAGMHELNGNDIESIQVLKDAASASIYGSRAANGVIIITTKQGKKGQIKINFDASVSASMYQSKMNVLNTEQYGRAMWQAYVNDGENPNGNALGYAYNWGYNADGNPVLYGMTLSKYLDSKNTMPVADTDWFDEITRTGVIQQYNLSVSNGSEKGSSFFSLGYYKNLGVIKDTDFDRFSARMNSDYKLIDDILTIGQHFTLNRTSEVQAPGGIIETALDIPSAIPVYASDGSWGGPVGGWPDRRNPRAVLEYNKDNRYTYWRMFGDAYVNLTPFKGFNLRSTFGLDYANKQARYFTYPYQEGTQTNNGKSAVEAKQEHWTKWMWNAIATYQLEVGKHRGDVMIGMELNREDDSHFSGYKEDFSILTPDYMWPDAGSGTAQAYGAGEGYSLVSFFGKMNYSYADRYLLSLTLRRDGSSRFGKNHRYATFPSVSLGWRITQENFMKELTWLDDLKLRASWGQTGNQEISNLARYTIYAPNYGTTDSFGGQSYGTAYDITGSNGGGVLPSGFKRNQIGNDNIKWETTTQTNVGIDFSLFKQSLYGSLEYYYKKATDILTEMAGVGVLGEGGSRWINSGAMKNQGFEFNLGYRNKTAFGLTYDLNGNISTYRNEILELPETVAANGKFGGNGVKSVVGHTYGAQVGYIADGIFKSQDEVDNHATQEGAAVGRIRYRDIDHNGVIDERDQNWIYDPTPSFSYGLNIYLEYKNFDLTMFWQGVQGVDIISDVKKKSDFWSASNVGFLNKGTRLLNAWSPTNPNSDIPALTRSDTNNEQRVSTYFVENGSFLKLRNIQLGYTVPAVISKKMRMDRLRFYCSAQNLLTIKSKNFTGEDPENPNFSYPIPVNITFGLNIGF
Nature of the series: crystal structure; Bt1762-63 purified from B. theta in 10 mM Hepes/100 mM NaCl/0.4% C8E4 pH 7.5; crystallised without ligand and after incubation with 2.5 mM β2,6 FOS. Conditions: both partners purified.

Series [1] concerns the molecule itself. Nature of the series: native MS; purified Bt1762-63 in 0.5% C8E4, 0.2 M ammonium acetate, pH 6.9; ligand-free and with FOS fractions.

B1: Bt1762 (SusD), C-terminal His6 tag, from the B. theta Bt1762-his strain (natural protein, Bacteroides thetaiotaomicron VPI-5482, UniProt Q8A6W4 19-570, looked up)
chain: CDDFLDRQVPQGIVTGDQIASPEYVDNLVISAYAIWATGDDINSSFSLWNYDVRSDDCYKGGSGTEDGGVFNALEISKGINTTDWNINDIWKRLYQCITRANTALQSLDQMDEKTYPLKNQRIAEMRFLRGHAHFMLKQLFKKIVIVNDENMEPDAYNELSNTTYTNDEQWQKIADDFQFAYDNLPEVQIEKGRPAQAAAAAYLAKTYLYKAYRQDGADNALTGINEEDLKQVVKYTDPLIMAKGGYGLETDYSMNFLPQYENGAESVWAIQYSINDGTYNGNLNWGMGLTTPQILGCCDFHKPSQNLVNAFKTDSQGKPLFSTYDNENYEVATDNVDPRLFHTVGMPGFPYKYNEGYIIQKNDDWSRSKGLYGYYVSLKENVDPDCDCLKKGSYWASSLNHIVIRYADVLLMRAEALIQLNDGRITDAISLINEVRSRAAGSTMLIFNYKEDYGVNFKVTPYDLKAYAQDEAMKMLKWERRVEFGMESSRFFDLVRWGEAKDVINAYYVTEASRCSIYKNAGFTENKNEYLPVPFEQISASNGNYTQNFGW
modifications: lipid anchor (lipoprotein)
notes: Chromosomally tagged, expressed natively; always isolated together with Bt1763; also called SusD lid; WT Bt1762; source: B. thetaiotaomicron (Bt1762-his strain) grown on MM-fructose, outer membrane fraction in LDAO; purified with Bt1763 (IMAC, SEC); not shown: His6, C-terminal, kept
With B1, in the series with Bt1763 (SusC), the binding result is “binds”.

B2: Bt1762-63 SusCD complex (one Bt1762 and one Bt1763), the unit that pairs into SusC2D2 (complex, Bacteroides thetaiotaomicron VPI-5482)
chain 1: CDDFLDRQVPQGIVTGDQIASPEYVDNLVISAYAIWATGDDINSSFSLWNYDVRSDDCYKGGSGTEDGGVFNALEISKGINTTDWNINDIWKRLYQCITRANTALQSLDQMDEKTYPLKNQRIAEMRFLRGHAHFMLKQLFKKIVIVNDENMEPDAYNELSNTTYTNDEQWQKIADDFQFAYDNLPEVQIEKGRPAQAAAAAYLAKTYLYKAYRQDGADNALTGINEEDLKQVVKYTDPLIMAKGGYGLETDYSMNFLPQYENGAESVWAIQYSINDGTYNGNLNWGMGLTTPQILGCCDFHKPSQNLVNAFKTDSQGKPLFSTYDNENYEVATDNVDPRLFHTVGMPGFPYKYNEGYIIQKNDDWSRSKGLYGYYVSLKENVDPDCDCLKKGSYWASSLNHIVIRYADVLLMRAEALIQLNDGRITDAISLINEVRSRAAGSTMLIFNYKEDYGVNFKVTPYDLKAYAQDEAMKMLKWERRVEFGMESSRFFDLVRWGEAKDVINAYYVTEASRCSIYKNAGFTENKNEYLPVPFEQISASNGNYTQNFGW
chain 2: GQNITVKGNVTSKTDGQPIIGASVVETTATTNGTITDFDGNFTLSVPVNSTLKITYIGYKPVTVKAAAIVNVLLEEDTQMVDEVVVTGYTTQRKADLTGAVSVVKVDEIQKQGENNPVKALQGRVPGMNITADGNPSGSATVRIRGIGTLNNNDPLYIIDGVPTKAGMHELNGNDIESIQVLKDAASASIYGSRAANGVIIITTKQGKKGQIKINFDASVSASMYQSKMNVLNTEQYGRAMWQAYVNDGENPNGNALGYAYNWGYNADGNPVLYGMTLSKYLDSKNTMPVADTDWFDEITRTGVIQQYNLSVSNGSEKGSSFFSLGYYKNLGVIKDTDFDRFSARMNSDYKLIDDILTIGQHFTLNRTSEVQAPGGIIETALDIPSAIPVYASDGSWGGPVGGWPDRRNPRAVLEYNKDNRYTYWRMFGDAYVNLTPFKGFNLRSTFGLDYANKQARYFTYPYQEGTQTNNGKSAVEAKQEHWTKWMWNAIATYQLEVGKHRGDVMIGMELNREDDSHFSGYKEDFSILTPDYMWPDAGSGTAQAYGAGEGYSLVSFFGKMNYSYADRYLLSLTLRRDGSSRFGKNHRYATFPSVSLGWRITQENFMKELTWLDDLKLRASWGQTGNQEISNLARYTIYAPNYGTTDSFGGQSYGTAYDITGSNGGGVLPSGFKRNQIGNDNIKWETTTQTNVGIDFSLFKQSLYGSLEYYYKKATDILTEMAGVGVLGEGGSRWINSGAMKNQGFEFNLGYRNKTAFGLTYDLNGNISTYRNEILELPETVAANGKFGGNGVKSVVGHTYGAQVGYIADGIFKSQDEVDNHATQEGAAVGRIRYRDIDHNGVIDERDQNWIYDPTPSFSYGLNIYLEYKNFDLTMFWQGVQGVDIISDVKKKSDFWSASNVGFLNKGTRLLNAWSPTNPNSDIPALTRSDTNNEQRVSTYFVENGSFLKLRNIQLGYTVPAVISKKMRMDRLRFYCSAQNLLTIKSKNFTGEDPENPNFSYPIPVNITFGLNIGF
modifications: lipid anchor (lipoprotein)
notes: Bt1762 (SusD), Bacteroides thetaiotaomicron VPI-5482; as the chain of m1. numbers count on: the mature protein; Bt1763 (SusC), Bacteroides thetaiotaomicron VPI-5482; as the chain of m2. numbers count on: the mature protein; Used for the self-association of the SusCD unit into the SusC2D2 dimer; also called Bt1762-Bt1763; SusCD monomer; source: B. thetaiotaomicron (Bt1762-his strain) grown on …
For the molecule B2, the stoichiometry N – broadly, a count of units in the complex or per binding partner – in series [1] is 2.
